Test results: patent US20190360025A1

Columns and labels:
[1] = molecular target: tumor necrosis factor alpha (TNF-α), R&D Systems 210-TA-005 (UniProt P01375); assay: t-PLA 10X probes, buffer; TNF-α 1.00E-11 M
[2] = molecular target: tumor necrosis factor alpha (TNF-α), R&D Systems 210-TA-005 (UniProt P01375); assay: c-PLA 1X probes, human plasma; TNF-α 1.00E-11 M
[3] = molecular target: tumor necrosis factor alpha (TNF-α), R&D Systems 210-TA-005 (UniProt P01375); assay: t-PLA 1X probes, human plasma; TNF-α 1.00E-13 M
[4] = molecular target: tumor necrosis factor alpha (TNF-α), R&D Systems 210-TA-005 (UniProt P01375); assay: c-PLA 1X probes, human plasma; TNF-α 1.00E-13 M
[5] = molecular target: tumor necrosis factor alpha (TNF-α), R&D Systems 210-TA-005 (UniProt P01375); assay: t-PLA 10X probes, human plasma; TNF-α 1.00E-11 M
[6] = molecular target: tumor necrosis factor alpha (TNF-α), R&D Systems 210-TA-005 (UniProt P01375); assay: c-PLA, buffer; TNF-α 5.00E-07 M
[7] = molecular target: tumor necrosis factor alpha (TNF-α), R&D Systems 210-TA-005 (UniProt P01375); assay: c-PLA 1X probes, human plasma; TNF-α 1.00E-09 M
[8] = molecular target: tumor necrosis factor alpha (TNF-α), R&D Systems 210-TA-005 (UniProt P01375); assay: c-PLA 10X probes, human plasma; TNF-α 1.00E-09 M
[9] = molecular target: tumor necrosis factor alpha (TNF-α), R&D Systems 210-TA-005 (UniProt P01375); assay: t-PLA 1X probes, buffer; TNF-α 1.00E-11 M
[10] = molecular target: tumor necrosis factor alpha (TNF-α), R&D Systems 210-TA-005 (UniProt P01375); assay: c-PLA 1X probes, human plasma; TNF-α 1.00E-12 M
[11] = molecular target: tumor necrosis factor alpha (TNF-α), R&D Systems 210-TA-005 (UniProt P01375); assay: t-PLA 1X probes, human plasma; TNF-α 5.00E-07 M
[12] = molecular target: tumor necrosis factor alpha (TNF-α), R&D Systems 210-TA-005 (UniProt P01375); assay: t-PLA 1X probes, human plasma; TNF-α 1.00E-12 M
[13] = molecular target: tumor necrosis factor alpha (TNF-α), R&D Systems 210-TA-005 (UniProt P01375); assay: c-PLA, buffer; TNF-α 1.00E-08 M
[14] = molecular target: tumor necrosis factor alpha (TNF-α), R&D Systems 210-TA-005 (UniProt P01375); assay: t-PLA, buffer; TNF-α 1.00E-11 M
[15] = molecular target: tumor necrosis factor alpha (TNF-α), R&D Systems 210-TA-005 (UniProt P01375); assay: t-PLA 1X probes, human plasma; TNF-α 1.00E-09 M
[16] = molecular target: tumor necrosis factor alpha (TNF-α), R&D Systems 210-TA-005 (UniProt P01375); assay: t-PLA 10X probes, buffer; TNF-α 1.00E-09 M
[17] = molecular target: vascular endothelial growth factor (VEGF), R&D Systems 293-VE-010 (human) (UniProt P15692); assay: t-PLA, human plasma; VEGF 1.00E-12 M
[18] = molecular target: vascular endothelial growth factor (VEGF), R&D Systems 293-VE-010 (human) (UniProt P15692); assay: c-PLA, buffer; VEGF 1.00E-10 M
[19] = molecular target: vascular endothelial growth factor (VEGF), R&D Systems 293-VE-010 (human) (UniProt P15692); assay: t-PLA, chicken plasma; VEGF 1.00E-08 M
[20] = molecular target: vascular endothelial growth factor (VEGF), R&D Systems 293-VE-010 (human) (UniProt P15692); assay: c-PLA, human plasma; VEGF 1.00E-09 M
[21] = molecular target: vascular endothelial growth factor (VEGF), R&D Systems 293-VE-010 (human) (UniProt P15692); assay: t-PLA, buffer; VEGF 1.00E-13 M
[22] = molecular target: vascular endothelial growth factor (VEGF), R&D Systems 293-VE-010 (human) (UniProt P15692); assay: t-PLA, buffer; VEGF 1.00E-08 M
[23] = molecular target: vascular endothelial growth factor (VEGF), R&D Systems 293-VE-010 (human) (UniProt P15692); assay: t-PLA, chicken plasma; VEGF 1.00E-11 M
[24] = molecular target: vascular endothelial growth factor (VEGF), R&D Systems 293-VE-010 (human) (UniProt P15692); assay: SPR, isoaffinity graph
[25] = molecular target: vascular endothelial growth factor (VEGF), R&D Systems 293-VE-010 (human) (UniProt P15692); assay: c-PLA, human plasma; VEGF 1.00E-14 M
[26] = molecular target: vascular endothelial growth factor (VEGF), R&D Systems 293-VE-010 (human) (UniProt P15692); assay: t-PLA, buffer; VEGF 1.00E-10 M
[27] = molecular target: vascular endothelial growth factor (VEGF), R&D Systems 293-VE-010 (human) (UniProt P15692); assay: c-PLA with preamplification; VEGF 1.00E-10 M
[28] = molecular target: vascular endothelial growth factor (VEGF), R&D Systems 293-VE-010 (human) (UniProt P15692); assay: c-PLA with preamplification; VEGF 1.00E-08 M

Chain of UniProt P15692 (P15692 other isoform, or with tags, fused parts or gaps limits assumed): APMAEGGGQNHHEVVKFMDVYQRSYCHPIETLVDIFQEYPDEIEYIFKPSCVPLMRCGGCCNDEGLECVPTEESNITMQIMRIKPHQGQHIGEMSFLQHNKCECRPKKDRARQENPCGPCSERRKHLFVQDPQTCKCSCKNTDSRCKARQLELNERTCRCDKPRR
Chain of UniProt P01375 (P01375 77-233 limits assumed): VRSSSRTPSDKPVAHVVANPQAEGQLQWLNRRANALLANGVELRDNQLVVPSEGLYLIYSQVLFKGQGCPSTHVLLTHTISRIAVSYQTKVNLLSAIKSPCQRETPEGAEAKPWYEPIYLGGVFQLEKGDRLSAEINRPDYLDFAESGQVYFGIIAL

affinity-purified polyclonal anti-TNF-α antibody (R&D Systems AF-210-NA)
Counts [1]: 7.03e+06 | SBR [1]: 1.2 | Counts [2]: 105 | SBR [2]: 1.4 | Counts [3]: 203000 | Counts [4]: 83.7 | SBR [4]: 1.1 | Counts [5]: 4.13e+06 | Counts [6]: 33000 | SBR [6]: 2930 | Counts [7]: 1310 | SBR [7]: 17 | Counts [8]: 45400 | SBR [8]: 21 | Counts [9]: 443000 | Counts [10]: 75.9 | Counts [11]: 2.12e+08 | SBR [11]: 892 | Counts [12]: 154000 | Counts [13]: 11600 | SBR [13]: 1030 | Counts [14]: 443000 | SBR [14]: 2.6 | Counts [15]: 4.96e+06 | SBR [15]: 21 | Counts [16]: 3.2e+08 | SBR [16]: 56

affinity-purified polyclonal anti-VEGF antibody (R&D Systems AF-293-NA)
Counts [17]: 2.06e+06 | SBR [17]: 1.3 | Counts [18]: 95900 | SBR [18]: 3230 | Counts [19]: 1.49e+08 | SBR [19]: 2230 | Counts [20]: 40500 | SBR [20]: 156 | Counts [21]: 1.61e+06 | Counts [22]: 2.5e+09 | SBR [22]: 7230 | Counts [23]: 7.94e+06 | SBR [23]: 119 | Kd [24]: < 5 pM | Counts [25]: 292 | SBR [25]: 1.1 | Counts [26]: 7.59e+08 | SBR [26]: 2190 | Counts [27]: 6.02e+07 | SBR [27]: 1010 | Counts [28]: 8.14e+07 | SBR [28]: 1370
